Source: patent publication US9579358B2, “Compositions for binding to amyloid proteins” (LANCASTER UNIVERSITY BUSINESS ENTERPRISES LIMITED, priority 2011, dated 2017)
Non-standard residues stand in square brackets, D forms with d. No end group written: not given here.

Columns and labels:
[1] = Nanoparticle Tracking Analysis (NTA); format: physicochemical
Description: The particles were investigated by Nanoparticle Tracking Analysis (NTA) which is a method for visualizing and analyzing particles in liquids that can be used to determine the size of individual particles by tracking their rate of Brownian motion.

SHSY-5Y cells [2] = assay: MTT cell viability assay, protection from pre-aggregated Aβ1-42; format: cell-based; details: for Absorption units (560 nm): control with Abeta 2.467, no Abeta 3.608
Procedure: (§1) SHSY 5Y cells were grown and maintained in DMEM (Dulbecco's Modified Eagle Medium) supplemented with FBS under standard mammalian cell culture conditions. During treatment cells were kept in Optimem plus or minus peptide liposomes in 96 well plates at 20000 cells per well for 24 hours, again under standard culture conditions. For cell protection assays 5 μM of pre-aggregated Aβ1-42 was added at the same time as peptide liposomes. Cell viability was assessed for four wells for each treatment using a Promega CellTiter assay kit.

SHSY-5Y cells [3] = assay: MTT cell viability assay, toxicity of PINPs alone; format: cell-based; details: 10 μM PINPs, 24 hours
Procedure: as §1

Aβ42 = biological target: T1, Aβ42 (Homo sapiens, UniProt P05067); assay: Sandwich immunoassay (6E10) for Aβ oligomers; format: biochemical; details: Aβ1-42 12.5 μM
T1 construct: Recombinant Aβ42, Ultrapure, was purchased from rPeptide, Bogart, Ga., USA; purchased rPeptide, Bogart, Ga., USA
T1 sequence (P05067 672-713 limits assumed): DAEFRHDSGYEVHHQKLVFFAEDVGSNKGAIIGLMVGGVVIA

With “PINPs: RI-OR2-TAT covalently attached to nanoliposomes (cholesterol:sphingomyelin [1:1] with 2.5% maleimide) via an additional cysteine (Ac-[dR]G[dF][dF][dV][dL][dK]G[dR][dR][dR][dR][dQ][dR][dR][dK][dK][dR]G[dY][dC]; not fully specified (residue 21); also: C-terminal D-Cys coupled via its thiol to maleimide lipid of nanoliposome)” the average diameter [1] was 130 nm, the “Absorption units (560 nm)” value (SHSY-5Y cells [2]; PINPs 0.01 μM plus 5 μM pre-aggregated Aβ1-42) was 3.370 Absorption units and the “Absorption units (560 nm)” value (SHSY-5Y cells [2]; PINPs 0.1 μM plus 5 μM pre-aggregated Aβ1-42) was 3.478 Absorption units. The “Absorption units (560 nm)” value (SHSY-5Y cells [2]; PINPs 1 μM plus 5 μM pre-aggregated Aβ1-42) was 3.252 Absorption units, the “Absorption units (560 nm)” value (SHSY-5Y cells [2]; PINPs 10 μM plus 5 μM pre-aggregated Aβ1-42) was 3.538 Absorption units and the “cell viability in the presence of pre-aggregated Aβ1-42” value (SHSY-5Y cells [2]; PINPs at 10, 1, 0.1, 0.01 μM) was “cell viability remained near that of untreated cells”. The toxicity to cells (SHSY-5Y cells [3]) was “not toxic to cells”, the “Absorbance units (560 nm)” value (SHSY-5Y cells [3]; untreated cells 3.608, lysed cells 0.654) was 3.610 Absorbance units and the “inhibition of oligomer formation” value (Aβ42; 1:100 molar ratio of PINPS (total lipids):Aβ) was “still substantial”. For the same substance, the “immunoassay signal (time-resolved fluorescence, europium)” value (“immunoassay signal” for short) (Aβ42; PINPs 1:1, 0 hours) was 9494 relative fluorescence units, the “immunoassay signal” value (Aβ42; PINPs 1:1, 2 hours) was 17524 relative fluorescence units and the “immunoassay signal” value (Aβ42; PINPs 1:1, 4 hours) was 62958 relative fluorescence units. The “immunoassay signal” value (Aβ42; PINPs 1:1, 8 hours) was 116308 relative fluorescence units, the “immunoassay signal” value (Aβ42; PINPs 1:1, 24 hours) was 178685 relative fluorescence units and the “immunoassay signal” value (Aβ42; PINPs 1:1, 48 hours) was 122098 relative fluorescence units. For the same substance, the “immunoassay signal” value (Aβ42; PINPs 1:10, 0 hours) was 9666 relative fluorescence units, the “immunoassay signal” value (Aβ42; PINPs 1:10, 2 hours) was 33960 relative fluorescence units and the “immunoassay signal” value (Aβ42; PINPs 1:10, 4 hours) was 63899 relative fluorescence units. The “immunoassay signal” value (Aβ42; PINPs 1:10, 8 hours) was 77883 relative fluorescence units, the “immunoassay signal” value (Aβ42; PINPs 1:10, 24 hours) was 95760 relative fluorescence units and the “immunoassay signal” value (Aβ42; PINPs 1:10, 48 hours) was 198806 relative fluorescence units. The “immunoassay signal” value (Aβ42; PINPs 1:50, 0 hours) was 7833 relative fluorescence units, the “immunoassay signal” value (Aβ42; PINPs 1:50, 2 hours) was 124190 relative fluorescence units and the “immunoassay signal” value (Aβ42; PINPs 1:50, 4 hours) was 111776 relative fluorescence units. The “immunoassay signal” value (Aβ42; PINPs 1:50, 8 hours) was 177380 relative fluorescence units, the “immunoassay signal” value (Aβ42; PINPs 1:50, 24 hours) was 173198 relative fluorescence units and the “immunoassay signal” value (Aβ42; PINPs 1:50, 48 hours) was 99592 relative fluorescence units. The “immunoassay signal” value (Aβ42; PINPs 1:100, 0 hours) was 3766 relative fluorescence units, the “immunoassay signal” value (Aβ42; PINPs 1:100, 2 hours) was 78306 relative fluorescence units and the “immunoassay signal” value (Aβ42; PINPs 1:100, 4 hours) was 82278 relative fluorescence units. For the same substance, the “immunoassay signal” value (Aβ42; PINPs 1:100, 8 hours) was 141932 relative fluorescence units, the “immunoassay signal” value (Aβ42; PINPs 1:100, 24 hours) was 154889 relative fluorescence units and the “immunoassay signal” value (Aβ42; PINPs 1:100, 48 hours) was 131004 relative fluorescence units.
